From patent US20210253733A1 (ONCORESPONSE, published 2021)

What was measured:
[1] = target: T1, His-tagged recombinant human CD163 (R&D Systems, No. 1607-CD-050) (human, UniProt Q86VB7 46-1050); assay: ELISA, plate coated with 5 ug/mL His-tagged recombinant human CD163, HRP anti-human IgG F(ab')2, A450
T1 construct: Bought protein; also called huCD163; not shown: His tag
Experimental: AB101 binding to His-tagged recombinant human CD163 (R&D Systems, No. 1607-CD-050) and recombinant murine CD163 (R&D Systems, No. 7435-CD-050) proteins was determined using ELISA. Recombinant proteins were diluted in PBS to 5 μg/mL and added to 384-well High binding ELISA plates (Greiner Bio-One, No. 781061) at 25 μL per well and incubated at 4° C. overnight. The plates were washed three times with PBS, using the BioTek ELx405 Select microplate washer (wash program ELISA_384_PBS_3×_wash) and then blocked with 90 μL/well of blocking buffer (2% nonfat, dry milk/PBS+0.05% Tween 20) for 1 hr at RT.
After blocking, 25 μL per well of primary antibodies were added to the plates and incubated for 1 hr at room temp. The test antibody was AB101; the control anti-huCD163 antibody was a commercially available antibody in murine IgG1 framework (R&D Systems, #MAB1607); the isotype controls were a proprietary mAb, in human IgG1, human FcNull, and murine IgG1 frameworks, with known specificity. After primary antibody binding, plates were washed three times with PBS using the EL405× (wash program ELISA_384_PBS_3×_wash). […] After development, the reaction was stopped by adding 25 μL per well of 0.3 M HCl and plates were read using the SpectraMax M5e instrument at 450 nm.

[2] = target: T2, human CD163 expressed on human myeloid cells (M2c macrophages, M2 macrophages, in vitro MDSCs) (human, UniProt Q86VB7 42-1114); assay: flow cytometry, AF647-conjugated AB102 on polarized M2c macrophages without siRNA
T2 construct: Endogenous CD163 on primary human monocyte-derived cells; also called huCD163; CD163^Hi cells
T2 sequence (Q86VB7 other isoform, or with tags, fused parts or gaps limits assumed): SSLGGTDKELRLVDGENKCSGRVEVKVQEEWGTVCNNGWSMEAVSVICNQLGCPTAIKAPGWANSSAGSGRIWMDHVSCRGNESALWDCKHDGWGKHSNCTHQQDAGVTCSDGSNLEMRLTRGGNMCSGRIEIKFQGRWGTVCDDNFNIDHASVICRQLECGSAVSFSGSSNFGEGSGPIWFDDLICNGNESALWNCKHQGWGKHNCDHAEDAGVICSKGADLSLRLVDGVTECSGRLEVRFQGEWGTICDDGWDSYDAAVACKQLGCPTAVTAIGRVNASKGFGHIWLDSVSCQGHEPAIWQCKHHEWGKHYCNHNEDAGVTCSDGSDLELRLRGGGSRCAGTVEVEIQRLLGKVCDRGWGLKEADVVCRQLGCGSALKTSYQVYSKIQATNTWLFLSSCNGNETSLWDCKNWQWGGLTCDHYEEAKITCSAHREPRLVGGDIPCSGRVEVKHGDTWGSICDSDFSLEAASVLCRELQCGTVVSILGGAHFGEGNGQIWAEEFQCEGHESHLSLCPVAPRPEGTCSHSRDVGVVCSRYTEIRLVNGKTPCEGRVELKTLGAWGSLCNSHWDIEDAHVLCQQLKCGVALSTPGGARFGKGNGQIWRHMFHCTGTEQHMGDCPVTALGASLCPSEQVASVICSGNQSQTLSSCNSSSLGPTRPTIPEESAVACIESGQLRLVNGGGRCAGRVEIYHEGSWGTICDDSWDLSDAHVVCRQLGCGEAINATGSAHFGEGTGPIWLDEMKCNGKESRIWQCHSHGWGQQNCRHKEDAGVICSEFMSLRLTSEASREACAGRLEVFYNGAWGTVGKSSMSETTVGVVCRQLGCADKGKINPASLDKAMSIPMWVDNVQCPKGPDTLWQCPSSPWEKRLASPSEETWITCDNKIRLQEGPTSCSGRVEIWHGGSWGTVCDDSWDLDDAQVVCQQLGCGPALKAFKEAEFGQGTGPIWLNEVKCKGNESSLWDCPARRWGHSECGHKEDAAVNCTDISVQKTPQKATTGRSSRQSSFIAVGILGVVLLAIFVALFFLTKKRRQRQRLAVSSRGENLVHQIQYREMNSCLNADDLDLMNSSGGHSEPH
Experimental: The macrophage detachment solution was replaced with cold PBS−/− (PBS without calcium and magnesium; Hyclone No. SH30028.02) containing 0.2 mM EDTA and 0.1% HSA. The cells were spun down at 650×g for 5 min and then resuspended in 0.5 mL cold Block solution (FACS buffer+10% NGS+10 μg of human IgG Fc fragment protein (Abcam No. ab90285)) per million cells. The cells were counted and an average of 1×10⁶ per mL was used for further calculations. The cells were incubated at RT for 15 min (to increase FcR binding), followed by a 30 min incubation on ice for full blocking. An aliquot of unstained cells was set aside for compensation controls. e780 viability dye (ThermoFisher eBioscience No. 65-0865-18) was added to the remainder at a final dilution of 1:1000. Cells were aliquoted into 96-well plates (40 μL per well), and 10 μL of antibody solution was added to each well. Antibodies were prepared with a starting concentration of 100 μg/mL in FACS buffer and serially diluted in FACS buffer. After addition of antibodies, each set of cells was tested with an antibody panel (AB101 in FcNull framework conjugated to AF647 and commercial anti-CD163 conjugated to BV421 [BioLegend No. 333612]) and an isotype panel (ISO2 in FcNull framework conjugated to AF647 and commercial mIgG1 conjugated to BV421). […] Cells were then analyzed by flow cytometry on a BD Canto II machine.

T1 sequence (Q86VB7 46-1050 limits assumed): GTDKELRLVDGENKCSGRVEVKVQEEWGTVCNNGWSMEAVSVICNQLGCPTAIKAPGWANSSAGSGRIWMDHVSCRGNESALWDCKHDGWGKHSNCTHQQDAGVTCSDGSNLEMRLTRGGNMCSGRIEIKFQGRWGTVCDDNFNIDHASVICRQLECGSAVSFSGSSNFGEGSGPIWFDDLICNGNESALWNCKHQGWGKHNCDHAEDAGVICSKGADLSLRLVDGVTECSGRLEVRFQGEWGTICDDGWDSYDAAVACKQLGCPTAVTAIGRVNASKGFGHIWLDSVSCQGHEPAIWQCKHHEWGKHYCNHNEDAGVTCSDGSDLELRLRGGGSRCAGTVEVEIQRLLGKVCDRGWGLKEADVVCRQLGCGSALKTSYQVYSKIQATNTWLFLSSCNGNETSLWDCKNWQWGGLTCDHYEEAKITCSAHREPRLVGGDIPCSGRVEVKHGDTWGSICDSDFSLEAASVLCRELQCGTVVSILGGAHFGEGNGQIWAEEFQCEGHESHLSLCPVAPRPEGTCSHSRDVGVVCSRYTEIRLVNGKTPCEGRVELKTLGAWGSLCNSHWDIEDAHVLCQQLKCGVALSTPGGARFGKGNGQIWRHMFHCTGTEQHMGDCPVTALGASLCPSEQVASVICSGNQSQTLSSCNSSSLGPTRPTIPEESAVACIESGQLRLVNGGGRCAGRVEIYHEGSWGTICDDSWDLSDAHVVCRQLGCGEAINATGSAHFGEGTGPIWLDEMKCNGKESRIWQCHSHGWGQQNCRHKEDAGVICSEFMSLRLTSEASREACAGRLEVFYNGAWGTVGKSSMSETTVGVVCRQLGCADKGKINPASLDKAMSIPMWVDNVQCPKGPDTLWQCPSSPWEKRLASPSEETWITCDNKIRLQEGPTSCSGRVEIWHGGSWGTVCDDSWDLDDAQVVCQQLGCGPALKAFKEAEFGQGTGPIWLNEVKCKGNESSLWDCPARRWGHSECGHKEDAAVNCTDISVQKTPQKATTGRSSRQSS

- EC50 (read off the curve) [1]: ~1 nM
- EC50 (read off the curve) [2]: ~10 nM
B1: AB102 (antibody, human IgG1, kappa)
light: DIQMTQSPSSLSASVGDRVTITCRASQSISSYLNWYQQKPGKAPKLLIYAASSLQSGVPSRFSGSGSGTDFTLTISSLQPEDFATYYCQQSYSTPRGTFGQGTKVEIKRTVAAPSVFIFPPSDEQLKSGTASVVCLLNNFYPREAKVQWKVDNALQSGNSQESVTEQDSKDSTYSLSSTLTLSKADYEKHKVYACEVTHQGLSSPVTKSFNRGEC
heavy: EVQLVESGGGVVQPGRSLRLSCAASGFTFSSYAMHWVRQAPGKGLEWVAVISYDGSNKYYADSVKGRFTISRDNSKNTLYLQMNSLRAEDTAVYYCARENVRPYYDFWSGYYSEYYYYGMDVWGQGTTVTVSSASTKGPSVFPLAPSSKSTSGGTAALGCLVKDYFPEPVTVSWNSGALTSGVHTFPAVLQSSGLYSLSSVVTVPSSSLGTQTYICNVNHKPSNTKVDKRVEPKSCDKTHTCPPCPAPEFEGGPSVFLFPPKPKDTLMISRTPEVTCVVVDVSHEDPEVKFNWYVDGVEVHNAKTKPREEQYNSTYRVVSVLTVLHQDWLNGKEYKCKVSNKALPASIEKTISKAKGQPREPQVYTLPPSREEMTKNQVSLTCLVKGFYPSDIAVEWESNGQPENNYKTTPPVLDSDGSFFLYSKLTVDKSRWQQGNVFSCSVMHEALHNHYTQKSLSLSPGK
notes: Biotinylated for the PFA immunoprecipitation and AF647 conjugated for flow cytometry; also called AB101 FcNull antibody; AB101 in FcNull framework; copies: 2 + 2
